Here are results for 1 substance from publication PMC4814874.

Assay [1] deals with MART1 peptide on HLA-A*02:01 (human). The assay is described as follows: IL-2 ELISPOT; Jurkat 76/CD8; T2 + graded peptide; full-length, on cells.
For assay [2] the target is unchanged. The assay is described as follows: IL-2 ELISPOT; Jurkat 76 without CD8; T2 + graded peptide; full-length, on cells.
For assay [3] the target is unchanged. Briefly: structural avidity; Jurkat 76/CD8; graded A2/MART1 multimer; full-length, on cells.
For assay [4] the target is unchanged. Briefly: structural avidity; Jurkat 76 without CD8; graded A2/MART1 multimer; full-length, on cells.

In the case of DMF5, the EC50 of peptide in assay [1] amounted to 0.102 µg/mL; in assay [2], 0.363 µg/mL. For the same substance, the EC50 of multimer is 0.013 µg/mL in assay [3] and 0.022 µg/mL in assay [4].
